From patent US20170002074A1

What was measured:
[1] = target: Full-length huCD33 membrane construct with single mutation S115A (human) (UniProt P20138); assay: FACS with Dylight 650 labelled isotype control on 293AD cells transiently expressing huCD33 S115A
[2] = target: Full-length huCD33 membrane construct with single mutation S115A (human) (UniProt P20138); assay: FACS with APC-labelled isotype control on 293AD cells transiently expressing huCD33 S115A
Human CD33 (human) [3] = target: Human CD33 (human) (UniProt P20138); assay: FACS on 293-hCD33 cells, isotype control of the competition experiment
Chain of Human CD33 (human) (P20138 18-364): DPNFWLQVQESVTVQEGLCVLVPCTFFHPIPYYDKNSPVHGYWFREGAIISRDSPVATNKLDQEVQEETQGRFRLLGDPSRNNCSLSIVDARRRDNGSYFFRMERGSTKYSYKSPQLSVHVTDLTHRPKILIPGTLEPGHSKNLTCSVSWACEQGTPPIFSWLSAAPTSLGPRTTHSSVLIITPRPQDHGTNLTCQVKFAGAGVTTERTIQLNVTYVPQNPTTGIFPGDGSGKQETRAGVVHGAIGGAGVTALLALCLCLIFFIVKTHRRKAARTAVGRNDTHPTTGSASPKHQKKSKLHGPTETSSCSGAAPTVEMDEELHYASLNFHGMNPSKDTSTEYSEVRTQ

[4] = target: Full-length huCD33 membrane construct with single mutation S115A (human) (UniProt P20138); assay: FACS with WM53-APC (BD-Bioscience) on 293AD cells transiently expressing huCD33 S115A
[5] = target: Full-length huCD33 membrane construct with double mutation S102A/S115A (human) (UniProt P20138); assay: FACS with WM53-APC (BD-Bioscience) on 293AD cells transiently expressing huCD33 S102A/S115A
Chain of Full-length huCD33 membrane construct with double mutation S102A/S115A (human) (P20138 18-364 S102A/S115A): as the sequence (P20138 18-364) above, with S85A, S98A counted along it

Human CD33 (human) [6] = target: Human CD33 (human) (UniProt P20138); assay: FACS with WM53-APC (BD-Bioscience) on HEK293AD cells stably expressing rhCD33 (positive control stain)
[7] = target: huCD33 R69G variant (human) (UniProt P20138); assay: FACS, control antibody, on 293AD cells labelled 'SNPG69R', taken as the SNP variant of paragraph 650
Chain of huCD33 R69G variant (human) (P20138 18-364 R69G): as the sequence (P20138 18-364) above, with R52G counted along it

[8] = target: Construct-88B: CD33 Ig-like V (M17-V136 including spacer H137-H143) linked to an irrelevant Ig-like C (including TM/CD) (human); assay: FACS on 293 cells transiently transfected with construct 88B, control antibody
Chain of Construct-88B: CD33 Ig-like V (M17-V136 including spacer H137-H143) linked to an irrelevant Ig-like C (including TM/CD) (human) (chain, as listed by the source limits assumed, form in doubt): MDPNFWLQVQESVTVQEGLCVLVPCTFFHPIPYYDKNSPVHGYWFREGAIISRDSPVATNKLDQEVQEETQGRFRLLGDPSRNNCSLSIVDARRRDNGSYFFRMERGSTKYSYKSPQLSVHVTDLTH

[9] = target: Construct-88: irrelevant Ig-like V linked to a CD33 Ig-like C (R144-Q228 including TM/CD L229) (human); assay: FACS on 293 cells transiently transfected with construct 88, control antibody
Chain of Construct-88: irrelevant Ig-like V linked to a CD33 Ig-like C (R144-Q228 including TM/CD L229) (human) (P20138 144-364): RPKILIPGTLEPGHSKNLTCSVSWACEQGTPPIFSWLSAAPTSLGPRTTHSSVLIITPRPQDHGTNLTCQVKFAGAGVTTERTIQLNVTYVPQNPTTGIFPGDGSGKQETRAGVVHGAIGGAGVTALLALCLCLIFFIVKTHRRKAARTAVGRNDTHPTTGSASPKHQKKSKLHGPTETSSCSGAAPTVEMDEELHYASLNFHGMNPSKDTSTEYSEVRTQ

Chain of Full-length huCD33 membrane construct with single mutation S115A (human) (P20138 18-364 S115A): as the sequence (P20138 18-364) above, with S98A counted along it

In the case of Iso-650 (antibody), the Geom. Mean:FL4-H [1] was 8.67.

With Iso-APC (antibody) the Geom. Mean:FL4-H [2] was 2.52.

Work on Isotype (antibody) yielded a Geom. Mean:FL1 (Human CD33 (human) [3]) of 3.58.

WM53 (antibody) was tested, and the Geom. Mean:FL4-H [4] was 609, the Geom. Mean:FL4-H [5] was 500 and the Geom. Mean:FL4-H (Human CD33 (human) [6]) was 1280.

gD (antibody) gave a Geom. Mean:FL1-H [7] of 5.83.

hgD-650 (antibody) gave a Geom. Mean:FL4-H [8] of 16.7 and a Geom. Mean:FL4-H [9] of 13.9.

With mIgG1 (antibody) the Geom. Mean:FL1-H [7] was 5.78.
